# No end group written: not given here. FI = 5(6)-carboxyfluorescein
# T1: MBP-M1^C-SENP1-H6 (human, UniProt Q9P0U3 419-644)
# T1 sequence (Q9P0U3 whole entry, looked up): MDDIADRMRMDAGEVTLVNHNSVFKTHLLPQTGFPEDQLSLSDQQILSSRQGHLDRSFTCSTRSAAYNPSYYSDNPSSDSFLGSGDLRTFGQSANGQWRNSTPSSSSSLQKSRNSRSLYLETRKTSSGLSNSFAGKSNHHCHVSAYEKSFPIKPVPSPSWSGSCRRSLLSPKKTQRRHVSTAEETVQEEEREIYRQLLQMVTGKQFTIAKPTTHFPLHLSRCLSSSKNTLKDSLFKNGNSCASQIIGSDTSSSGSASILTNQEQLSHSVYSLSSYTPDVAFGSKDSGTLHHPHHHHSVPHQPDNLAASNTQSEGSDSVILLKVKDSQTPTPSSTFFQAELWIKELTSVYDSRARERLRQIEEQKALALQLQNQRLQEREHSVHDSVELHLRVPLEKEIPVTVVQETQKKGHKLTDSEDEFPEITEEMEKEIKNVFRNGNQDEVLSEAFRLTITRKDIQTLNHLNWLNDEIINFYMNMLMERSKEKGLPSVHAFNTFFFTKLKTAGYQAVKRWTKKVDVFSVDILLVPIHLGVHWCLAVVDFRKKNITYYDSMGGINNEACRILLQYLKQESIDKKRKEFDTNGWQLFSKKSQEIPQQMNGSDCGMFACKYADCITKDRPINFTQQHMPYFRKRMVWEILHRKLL
# B1: pepWT^N (FI-KKEFE-IntN), synthetic peptide with the Int^N of the AceL-TerL intein (peptide)
# peptide: {FI}-KKEFECVYGDTMVETEDGKIKIEDLYKRLA
# Legend:
# Assay in all cases: cell-based or functional assay
# [1] = target: MBP-M1^C-Gluc-H6 (Gaussia princeps)
# [2] = target: WT^C-Trx-H6 (AceL-TerL Int^C fused to hexahistidine-tagged thioredoxin) (UniProt P0AA25 2-109 = thioredoxin)
# [3] = target: MBP-M1^C-mRFP-H6
# [4] = target: MBP-M1^C-Ubc9-H6 (murine, UniProt P63280 1-158)
# [5] = target: MBP-M1^C-EGFP-H6
# [6] = target: T1, MBP-M1^C-SENP1-H6
# Chain of WT^C-Trx-H6 (AceL-TerL Int^C fused to hexahistidine-tagged thioredoxin) (P0AA25 other isoform, or with tags, fused parts or gaps): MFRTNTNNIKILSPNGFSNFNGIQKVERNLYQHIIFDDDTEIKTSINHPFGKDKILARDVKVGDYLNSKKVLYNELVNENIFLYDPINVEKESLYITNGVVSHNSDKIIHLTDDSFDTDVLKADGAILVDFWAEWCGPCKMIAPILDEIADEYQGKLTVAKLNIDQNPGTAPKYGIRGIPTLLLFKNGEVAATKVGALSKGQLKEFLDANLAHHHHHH
# Chain of MBP-M1^C-mRFP-H6 (main, as listed by the source): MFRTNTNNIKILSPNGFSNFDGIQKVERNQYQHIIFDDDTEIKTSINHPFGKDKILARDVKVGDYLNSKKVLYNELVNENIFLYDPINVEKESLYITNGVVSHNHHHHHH
# Chain of MBP-M1^C-EGFP-H6 (main, as listed by the source): as above
# Chain of MBP-M1^C-Gluc-H6 (Gaussia princeps) (main, as listed by the source): as above
# Chain of MBP-M1^C-Ubc9-H6 (P63280 other isoform, or with tags, fused parts or gaps): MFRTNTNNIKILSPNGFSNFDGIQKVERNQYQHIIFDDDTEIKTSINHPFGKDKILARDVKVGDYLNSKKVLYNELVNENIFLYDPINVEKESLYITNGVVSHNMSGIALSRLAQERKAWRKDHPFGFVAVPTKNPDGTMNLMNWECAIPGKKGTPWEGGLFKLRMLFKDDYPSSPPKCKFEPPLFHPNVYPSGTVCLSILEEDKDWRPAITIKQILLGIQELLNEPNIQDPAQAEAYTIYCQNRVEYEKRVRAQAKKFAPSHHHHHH
binder,measurement,setting,value
B1,yield of the N-terminally labelled splice product after 3 h at 8° C.,[1],~80%
same,splicing rate at 37° C. against 8° C.,[2],~50 fold slower
same,t½ of splicing at 8° C.,[2],7.2 min
same,yield of the N-terminally labelled splice product after 3 h at 8° C.,[3],~80%
same,yield of the N-terminally labelled splice product after 3 h at 8° C.,[4],~80%
same,yield of the N-terminally labelled splice product after 3 h at 8° C.,[5],~80%
same,yield of the N-terminally labelled splice product after 3 h at 8° C.,[6],~80%

# — US20160319287A1 (WESTF LISCHE WILHELMS UNIVERSIT T M NSTER, published 2016)
